One substance from paper PMC6954424 can be followed below.

The target of the assay is mouse IgG (on magnet beads) (mouse). The assay is described as follows: pull-down; DNA-barcoded HaloTag protein G (93 nM by qPCR) mixed with mouse IgG magnet beads in PBS-NP40, 4°C, 2 h; three washes; bound barcode quantified by qPCR. In general terms: Quantitative PCR measures a nucleic acid by following its amplification.

The substance “DNA-barcoded HaloTag protein G (from UniProt P06654 34-417) (natural protein)” had a fold signal (qPCR of the barcode) over the negative control barcoded GST with IgG of 1000 fold.
